From US20180335433A1, “COMPOSITIONS TARGETING PKC-THETA AND USES AND METHODS OF TREATING PKC-THETA PATHOLOGIES, ADVERSE IMMUNE RESPONSES AND DISEASES” (La Jolla Institute for Allergy and Immunology, priority 2011, published 2018)

Columns and labels:
endogenous PKCθ = experiment: IS localization in OT-II CD4+ T cells conjugated with Ova-loaded APCs (confocal); format: cell-based, mouse; conditions: OT-II TCR-Tg CD4+ T cells
Method: (FIG. 6A) OT-II CD4^+ T cells were infected with retrovirus expressing Myc-tagged V3 domain, V3 mutated at P330/1/4/6A (V3-4PA), or PR motif-deleted V3 (V3-ΔPR). Infected cells (green) were harvested, stimulated, and fixed. Conjugates were stained with anti-Myc plus a secondary Alexa 555-coupled antibody (orange), and anti-PKCθ plus a secondary Alexa 647-coupled antibody (red). Cells were analyzed as in FIG. 1A. (FIG. 6B) Quantitative analysis of the results shown in (FIG. 6A) from 30-50 T-APC conjugates. ** p<0.05. (FIG. 6C) MCC-specific T hybridoma cells were cotransfected with indicated vector, together with RE/AP-Luc and β-Gal reporter plasmids. Cells were stimulated and analyzed as in FIG. 1C. (FIG. 6D) Naïve CD4^+ T cells from B6 mice stimulated with anti-CD3 plus anti-CD28 mAbs and differentiated in vitro under Th1-, Th2- or Th17-polarizing conditions were retrovirally transduced with empty pMIG vector, or with the indicated PKCθ V3 vectors. Cytokine-producing cells were analyzed by intracellular staining 8 h after restimulation. Right panels represent cumulative data showing percentage of cytokine-producing cells by intracellular staining. (FIG. 6E) MCC-specific T hybridoma cells were cotransfected with the indicated plasmids, together with NFAT luciferase reporter and a β-Gal reporter plasmid. Cells were incubated with fibroblasts that express I-E^K and B7-1 in the absence or presence of MCC peptide for 6 hrs. Normalized luciferase activity was determined in triplicates.
Full-length human PKCθ and its derivatives were cloned as a GFP fusion protein in the pMX retroviral vector. Retroviral supernatants were used to infect preactivated CD4^+ T cells from PKCθ^−/− or WT OT-II mice. Transduced cells were rested for an additional three days. On the day of experiment, APC were prepared from WT B6 splenocytes that were depleted of CD4^+ T cells using anti-CD4 (L3T4) mAb-coated beads. T-depleted APC were stained with 20 μM of cell tracker blue (CMAC) and then pulsed with 5 μM Ova peptide, respectively, for 30 min at 37° C. T cell-APC conjugation was carried out at 37° C. for 20 min before fixation with 4% paraformaldehyde and permeabilization with PBS supplemented with 1% BSA and 0.1% Triton X-100. […] Immunofluorescene images were captured using a Marianas digital fluorescence-microscopy system (Intelligent Imaging Innovations) as described (Becart, S. et al. Immunity 29, 704-719 (2008)).
Given the critical role of the PKCθ V3 domain in the enzyme's CD28 association, IS localization, and activation of downstream targets, ectopic expression of the isolated V3 domain was analyzed for interference with the localization and function of PKCθ in stimulated T cells. […]

[1] = test system: Th2-mediated lung inflammation; experiment: Th2-mediated Ova-induced airway inflammation after adoptive transfer of transduced OT-II Th2 cells; format: in vivo, mouse; conditions: transferred Th2 cells, aerosolized Ova 3 consecutive days
Text: (FIG. 7A-7D) OT-II CD4^+ T cells stimulated with anti-CD3 plus anti-CD28 mAbs and differentiated in vitro under Th2 (FIG. 7A-7C) or Th1 (FIG. 7D, 7E)-polarizing conditions were retrovitrally transduced with the same PKCθ V3 vectors as in FIG. 6. Sorted GFP^+ populations were adoptively transferred into naïve B6 mice, which were challenged with aerosolized Ova for 3 consecutive days. BAL fluid were obtained 1 d post-challenge and analyzed for total mononuclear cell infiltration (FIG. 7A, 7D) and cytokine expression using IL-4 (FIG. 7B), IL-5 (FIG. 7C) and IFN-γ (FIG. 7E) ELISA.
CD4^+ T cells from OT-II B6 mice were isolated and cultured with plate-bound anti-CD3 (5 μg/ml), soluble anti-CD28 (2.5 μg/ml) and IL-2 (100 U/ml) under Th1 or Th2 polarizing conditions. The cells were retrovirally infected on days 2-4 and cultured for an additional 3 days. GFP^+ cells were sorted, and 1×10^6 cells were injected intravenously into naïve WT B6 mice. One day later, mice received aerosolized Ova (5 mg/ml in 20 ml PBS) for 30 min, once a day for 3 consecutive days, using ultrasonic nebulization. Mice were sacrificed 24 h after the last challenge and assessed for lung inflammation. Collection of BAL fluid and determination of cytokine levels were carried out as described (Salek-Ardakani, S. et al. J Immunol 173, 6440-6447 (2004)).
The above findings were extended to an in vivo antigen-specific inflammatory response in an airway inflammation model, using a T cell adoptive transfer system. Mice receiving OT-II Th2 cells transduced with an empty vector developed an inflammatory response by comparison with PBS-challenged control mice, as evidenced by a significant increase in the number of infiltrating leukocytes in the bronchoalveolar lavages (BAL) fluid (FIG. 7a) and in the levels of signature Th2 cytokines, IL-4 (FIG. 7b) and IL-5 (FIG. 7c).

[2] = test system: Naïve CD4+ T cells from B6 mice, Treg (FoxP3+) cells; experiment: In vitro Treg (FoxP3+) differentiation of retrovirally transduced CD4+ T cells; format: cell-based, mouse; conditions: Treg-polarizing conditions (IL-2+TGFβ), GFP+FoxP3+ cells
Method: (§1) Naïve CD4+ T cells from B6 mice stimulated with anti-CD3 plus anti-CD28 mAbs and differentiated in vitro under Treg-polarizing conditions (IL-2+TGFβ) were retrovirally transduced with empty pMIG vector, or with the indicated PKCθ V3 vectors. Transduced (GFP+) cells were sorted and FoxP3+ cells were analyzed by intracellular staining.
as §1, with “CD4^+” for “CD4+”, “(GFP+)” for “(GFP+) cells were sorted and”, “intracellular staining 8 hours after restimulation. Right panels represent cumulative data showing percentage of GFP+FoxP3+ cells by intracellular” for “intracellular”

B1: V3-4PA: V3 mutated at P330/1/4/6A (4 Pro residues in the Pro-rich motif to Ala) (protein)
chain: MSPFLRIGLSNFDCGSCQSCQGEAVNPYCAVLVKEYVESENGQMYIQKKPTMYPPWDSTFDAHINKGRVMQIIVKGKNVDLISETTVELYSLAERCRKNNGKTEIWLELKPQGRMLMNARYFLEMSDTKDMNEFETEGFFALHQRRGAIKQAKVHHVKCHEFTATFFPQPTFCSVCHEFVWGLNKQGYQCRQCNAAIHKKCIDKVIAKCTGSAINSRETMFHKERFKIDMPHRFKVYNYKSPTFCEHCGTLLWGLARQGLKCDACGMNVHHRCQTKVANLCGINQKLMAEALAMIESTQQARCLRDTEQIFREGPVEIGLPCSIKNEARAACLATAGKREPQGISWESPLDEVDKMCHLPEPELNKERPSLQIKLKIEDFILHKMLGKGSFGKVFLAEFKKTNQFFAIKALKKDVVLMDDDVECTMVEKRVLSLAWEHPFLTHMFCTFQTKENLFFVMEYLNGGDLMYHIQSCHKFDLSRATFYAAEIILGLQFLHSKGIVYRDLKLDNILLDKDGHIKIADFGMCKENMLGDAKTNTFCGTPDYIAPEILLGQKYNHSVDWWSFGVLLYEMLIGQSPFHGQDEEELFHSIRMDNPFYPRWLEKEAKDLLVKLFVREPEKRLGVRGDIRQHPLFREINWEELERKEIDPPFRPKVKSPFDCSNFDKEFLNEKPRLSFADRALINSMDQNMFRNFSFMNPGMERLIS
effect on IS localization of endogenous PKCθ (endogenous PKCθ): did not interfere with the IS localization of endogenous PKCθ | subcellular localization of the transduced V3 protein (endogenous PKCθ): did not localize anymore in the IS | inhibition of the Th2 inflammatory response [1]: partially rescued the inhibition | promotion of Treg differentiation [2]: not
